Laboratory results from the RNAGym collection of RNA variant scans (doi:10.7554/elife.80360).

B1: CPEB3 Ribozyme (parent)
chain: GGGGGCCACAGCAGAAGCGUUCACGUCGCGGCCCCUGUCAGAUUCUGGUGAAUCUGCGAAUUCUGCUGU

Variants of: B1
Assay: self-cleavage, relative activity (ratio to wild type); higher = more cleavage; co-transcriptional

Row | Variant | self-cleavage
1 | GGGGGCCACAGAAGAAGCGUUCACGUCGCGGCCCCUGUCAGAUUCUGGUAAAUCUGCGAAUUCUGCUGU [C12A G50A] | 0.809
2 | GGGGGCCACAGAAGAAGCGUUCACGUCGCGGCCCCUGUCAGAUUCUGGUCAAUCUGCGAAUUCUGCUGU [C12A G50C] | 0.591
3 | GGGGGCCACAGAAGAAGCGUUCACGUCGCGGCCCCUGUCAGAUUCUGGUUAAUCUGCGAAUUCUGCUGU [C12A G50U] | 0.738
4 | GGGGGCCACAGAAGAAGCGUUCACGUCGCGGCCCCUGUCAGAUUCUGGUGAAUCUGCUAAUUCUGCUGU [C12A G58U] | 0.843
5 | GGGGGCCACAGAAGAAGCGUUCACGUCGCGGCCCCUGUCAGAUUCUGGUGAAUCUGCCAAUUCUGCUGU [C12A G58C] | 0.653
6 | GGGGGCCACAGAAGAAGCGUUCACGUCGCGGCCCCUGUCAGAUUCUGGUGAAUCUACGAAUUCUGCUGU [C12A G56A] | 0.502
7 | GGGGGCCACAGAAGAAGCGUUCACGUCGCGGCCCCUGUCAGAUUCUGGUGAAUCUUCGAAUUCUGCUGU [C12A G56U] | 0.296
8 | GGGGGCCACAGAAGAAGCGUUCACGUCGCGGCCCCUGUCAGAUUCUGGUGAAUCUCCGAAUUCUGCUGU [C12A G56C] | 0.348
9 | GGGGGCCACAGAAGAAGCGUUCACGUCGCGGCCCCCGUCAGAUUCUGGUGAAUCUGCGAAUUCUGCUGU [C12A U36C] | 0.441
10 | GGGGGCCACAGAAGAAGCGUUCACGUCGCGGCCCCUGUCAGAUUCUGGUGAAUCUGCGAAUUCUUCUGU [C12A G65U] | 0.932
11 | GGGGGCCACAGAAGAAGCGUUCACGUCGCGGCCCCUGUCAGAUUCUGGUGAAUCUGCGAAUUCUACUGU [C12A G65A] | 0.887
12 | GGGGGCCACAGAAGAAGCGUUCACGUCGCGGCCCCUGUCAGACUCUGGUGAAUCUGCGAAUUCUGCUGU [C12A U43C] | 0.453
13 | GGGGGCCACAGAAGAAGCGUUCACGUCGCGGCCCCUGUCAGAGUCUGGUGAAUCUGCGAAUUCUGCUGU [C12A U43G] | 0.207
14 | GGGGGCCACAGAAGAAGCGUUCACGUCGCGGCCCCUGUCAGAAUCUGGUGAAUCUGCGAAUUCUGCUGU [C12A U43A] | 0.259
15 | GGGGGCCACAGAAGAAGCGUUCACGUCGCGGCCCCUGUCAGAUCCUGGUGAAUCUGCGAAUUCUGCUGU [C12A U44C] | 0.343
16 | GGGGGCCACAGAAGAAGCGUUCACGUCGCGGCCCCUGUCAGAUGCUGGUGAAUCUGCGAAUUCUGCUGU [C12A U44G] | 0.55
17 | GGGGGCCACAGAAGAAGCGUUCACGUCGCGGCCCCUGUCAGAUACUGGUGAAUCUGCGAAUUCUGCUGU [C12A U44A] | 0.349
18 | GGGGGCCACAGAAGAAGCGUUCACGUCGCGGCCCCUGUCAGAUUCUGGGGAAUCUGCGAAUUCUGCUGU [C12A U49G] | 0.846
19 | GGGGGCCACAGAAGAAGCGUUCACGUCGCGGCCCCUGUCAGAUUCUGGAGAAUCUGCGAAUUCUGCUGU [C12A U49A] | 0.893
20 | GGGGGCCACAGAAGAAGCGUUCACGUCGCGGCCCCUGGCAGAUUCUGGUGAAUCUGCGAAUUCUGCUGU [C12A U38G] | 0.235

Row | Variant | self-cleavage
21 | GGGGGCCACAGAAGAAGCGUUCACGUCGCGGCCCCUGUCAGAUUCUGAUGAAUCUGCGAAUUCUGCUGU [C12A G48A] | 0.833
22 | GGGGGCCACAGAAGAAGCGUUCACGUCGCGGCCCCUGUCAGAUUCUGCUGAAUCUGCGAAUUCUGCUGU [C12A G48C] | 0.771
23 | GGGGGCCACAGAAGAAGCGUUCACGUCGCGGCCCCUGUCAGAUUCUGGUGAAUCGGCGAAUUCUGCUGU [C12A U55G] | 0.172
24 | GGGGGCCACAGAAGAAGCGUUCACGUCGCGGCCCCUGUCAGAUUCUGGUGAAUCAGCGAAUUCUGCUGU [C12A U55A] | 0.23
25 | GGGGGCCACAGAAGAAGCGUCCACGUCGCGGCCCCUGUCAGAUUCUGGUGAAUCUGCGAAUUCUGCUGU [C12A U21C] | 0.464
26 | GGGGGCCACAGAAGAAGCGUACACGUCGCGGCCCCUGUCAGAUUCUGGUGAAUCUGCGAAUUCUGCUGU [C12A U21A] | 0.642
27 | GGGGGCCACAGAAGAAGCGUUCACGUCGCGGCCCCUGUCAGAUUCCGGUGAAUCUGCGAAUUCUGCUGU [C12A U46C] | 0.609
28 | GGGGGCCACAGAAGAAGCGUUCACGUCGCGGCCCCUGUCAGAUUCGGGUGAAUCUGCGAAUUCUGCUGU [C12A U46G] | 0.628
29 | GGGGGCCACAGAAGAAGCGUUCACGUCGCGGCCCCUGUCAGAUUCUUGUGAAUCUGCGAAUUCUGCUGU [C12A G47U] | 0.876
30 | GGGGGCCACAGAAGAAGCGUUCACGUCGCGGCCCCUGUCAGAUUCUCGUGAAUCUGCGAAUUCUGCUGU [C12A G47C] | 0.837
31 | GGGGGCCACAGAAGAAGCGAUCACGUCGCGGCCCCUGUCAGAUUCUGGUGAAUCUGCGAAUUCUGCUGU [C12A U20A] | 0.0992
32 | GGGGGCCACAGAAGAAGCGGUCACGUCGCGGCCCCUGUCAGAUUCUGGUGAAUCUGCGAAUUCUGCUGU [C12A U20G] | 0.18
33 | GGGGGCCACAGAAGAAGCGCUCACGUCGCGGCCCCUGUCAGAUUCUGGUGAAUCUGCGAAUUCUGCUGU [C12A U20C] | 0.132
34 | GGGGGCCACAGAAGAAGCGUUCACGUCGCGGCCCCUGUCAGAUUCUGGUGAAGCUGCGAAUUCUGCUGU [C12A U53G] | 0.335
35 | GGGGGCCACAGAAGAAGCGUUCACGUCGCGGCCCCUGUCAGAUUCUGGUGAAACUGCGAAUUCUGCUGU [C12A U53A] | 0.354
36 | GGGGGCCACAGAAGAAGCGUUCACGCCGCGGCCCCUGUCAGAUUCUGGUGAAUCUGCGAAUUCUGCUGU [C12A U26C] | 0.5
37 | GGGGGCCACAGAAGAAGCGUUCACGUCGCGGCCCCUGUCAGAUUCUGGUGAAUCUGCGAAUUCUGCUAU [C12A G68A] | 0.843
38 | GGGGGCCACAGAAGAAGCGUUCACGUCGCGGCCCCUGUCAGAUUCUGGUGAAUCUGCGAAUUCUGCUUU [C12A G68U] | 0.807
39 | GGGGGCCACAGAAGAAGCGUUCACGUCGCGGCCCCUGUCAGAUUCUGGUGAAUCUGCGAAUUCUGCUCU [C12A G68C] | 0.842
